From publication PMC8826056, “Different Functions of IbRAP2.4, a Drought-Responsive AP2/ERF Transcription Factor, in Regulating Root Development Between Arabidopsis and Sweetpotato” come the findings set out here.

This data set concerns the target GST-IbRAP2.4 (Ipomoea batatas (Sushu 16), UniProt A0A3S6I5T9 1-294). As to the kind of experiment: EMSA; dose-dependent, 0.5-4 ug protein; unlabeled probe competes; 200 mM HEPES, 50 mM KCl, 5 mM DTT, 1 mM EDTA, 20 pmol poly dI-dC, 30 uL (so in the source), pH not stated; room temperature 30 min; 8% native PAGE. The conditions noted are these: protein: recombinant; tags: GST; label: 32P (T4 PNK, gamma-ATP); blunt (annealed oligonucleotide set).

Chain of GST-IbRAP2.4 (A0A3S6I5T9 entry or part of it): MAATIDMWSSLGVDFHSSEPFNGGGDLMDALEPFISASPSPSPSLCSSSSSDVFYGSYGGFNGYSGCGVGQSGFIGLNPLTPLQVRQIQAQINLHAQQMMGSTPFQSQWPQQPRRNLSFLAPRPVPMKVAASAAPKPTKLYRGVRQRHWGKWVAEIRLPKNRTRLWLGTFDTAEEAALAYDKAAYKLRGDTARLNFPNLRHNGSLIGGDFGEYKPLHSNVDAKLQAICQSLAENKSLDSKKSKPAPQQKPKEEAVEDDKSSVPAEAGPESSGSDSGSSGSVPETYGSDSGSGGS

B1: GCC-box probe (dsDNA)
DNA 1: TTCATAAGAGCCGCCACTCATAAGAGCCGCCACT
DNA 2: AGTGGCGGCTCTTATGAGTGGCGGCTCTTATGAA
For the molecule B1, the binding result was “binds”.

B2: DRE probe (dsDNA)
DNA 1: TTGATACTACCGACATGAGTTGATACTACCGACATGAGTT
DNA 2: AACTCATGTCGGTAGTATCAACTCATGTCGGTAGTATCAA
As to B2, the binding result was “binds”.
